Experiment: label from the status in PepcDB records

For “MIPYLYVLAAAFLWGTSFVAGKIAFGVADAPLIVLARFAMAGLFWLPVFCRSVRSVPSSRWGALLLLSFLMIPATFLLQFMGLQYTSATSATLMIGFEPLMVMLVGWLIWREQMTALHLLLGTVALAGVLLVMGWPSGANFLGCLLVLLSTVVVAIWVRWSKIWMQSLSVNAFTALTTVLGTIMLIPFALFLTNDWQVNLSTQGASALLYLGVGCSLGAGWLWNMGMRSIPANAGGMFLALEPIFGVIFAVALLYEPLGATTLAGIGLVVIPVLVISVLPVLQARRLPEAC”, which protein production is on record?
Its protein production is “failed”.

Which protein production does the source give for “MIQAQTAAPPHAKVTAILLFTTLMWGGSFLFNKIGMREVPPVHFFFFRFALAALLMGGVCLPRLARLNRHIAVRGAVVGLALAAVNLTFVLGVSGTTISRAGYLNNLFVLFIPLLTFALWRERVDRVTFGGIALAVVGLWALASGGAEGFNQGDLLSTVCALFIAIHIIAVSRVLRDEDVYLVTFVQFVTVAAVGLVLCLVLPWPEFTIGRAGAWSLAYCALFPTVICFTLQNAYQRFTTPTRAGLIYTLDPVWSMLFGVFILGERLTPRELAGCVLILMAVAGPLLARLYLEQRHRRLYRLDGAEGT” here?
Its protein production is “failed”.

For “MIQEKHLTFTINLLVSLFFLTILIIPKGYNYAPIILSAIGLIYFIPLKKKLSFSSEDKKLIFSFLFYFFTFLLSIIINKDGIREIDNPSRLLLFIPLLLLFKNFPIKRKTILYAIPSSALITGCVALFQKFALGYEKPFPETMHIQMGNIAISLATFSIVITLHFFIKKQYKSTLFGFVAIILAIMTSALSGARGGWIGLPVVVGIILFLYKEFINKKLIITLIAIITIGLTALITSPKFGIEKRYNAAKSDIVSYLEKNNRNTSLGARFDMWENALIAIKEAPIFGHGSDGYDEFRHKQVKSKQMAKTTLNFGSLHNQYLESWVKRGLVGFIALILIILTPIFYFIKNLNTHNLETKCICILGIIHIVSHIFYFTSQSFLAHNSGNIFYFSAMLCFIV”, which protein production is on record?
Its protein production is “failed”.

With “MIQITVVQIDNYGPWTVTPNPRRESDLQALQSRLYCDMNLQFGAHKGLAFYTRFDNIIAITNGIDLETHKRIQNSVKNRYPFTVSMAVASAETAYEAQKLATKTIQEYGSAQDDVRKEVLDVANEFVSNGYVQLAHVDINDITGKLTDLETAYDTYLSVQKTKLKLMEELKKYDSLGFFIGGDNFMCPCNGMNEKDFLCMFEDIKDSCGIELKAGIGIGKTAEDASNLADIGLEVIREGKTDSQVYTLKQEIDEQKNVPYNYMCPI” as the sequence, how does the protein production read?
Its protein production is “failed”.

For “MIQRTKAKVMGAPTPMAGLALGIASLGWSWENFAELHGYGQWISAGIASVLLVILATKFLLHNHLLREDLAHPVVGSVVPTFAMGTMVVSNSLGHFYPLAGDVLWLIAVVLHIVFLVSFVYHRAKDFELHHMVPSWFVPPVGIIVADVSFSGNPMLAPVAQGALTFGMVAYAIMLPMMIYRFMFTHEIPDAAKPTMAIMAAPASLSLAGYLTVTATPSPVIIAMLFGIAVLMTAIIYLAFFKLLRLPFSPGYAAFTFPMVIGATALFKMANWMELQGLAAHYVQQVRGLAGLELIVATFVVSYVALQYINNLLIQPRLMHAHHA”, which protein production is on record?
The protein production was “not failed”.

Which protein production does the source give for “MIQSQINRNIRLDLADAILLSKAKKDLSFAEIADGTGLAEAFVTAALLGQQALPADAARLVGAKLDLDEDSILLLQMIPLRGCIDDRIPTDPTMYRFYEMLQVYGTTLKALVHEKFGDGIISAINFKLDVKKVADPEGGERAVITLDGKYLPTKPF” here?
Its protein production is “not failed”.

With “MIRALSMHLLDRLTIRLFHDERQKQFSGDHARSLGWSSTESQFLRFKTMTQAINFEQKTVLDLGCGYGDFKTFLDMSCCIKSYTGVDQQSSFIKQAKSLFKHHTNCEFIKADFSATTLPKADIVVASGSLNYRARNKTYHAKVIKEMYERAEEAVIFNLLNSEHFTSSSLLEAHDPQQVLKYCLSFCPDSELITDYANEDFTIVMRHSNSSKLEHHHHHH” as the sequence, how does the protein production read?
Its protein production is “not failed”.

With “MIREKALEFHKNNFPGNGKIEVIPKVSLESREELTLAYTPGVAEPCKEIARDPGKVYEYTSKGNLVAVVSDGSRILGLGNIGPLAGLPVMEGKALLFKRFGGVDAFPIMIKEQEPNKFIDIVKAIAPTFGGINLEDIASPKCFYILERLREELDIPVFHDDQQGTAAVVLAGLLNALKVVGKKISEITLALFGAGAAGFATLRILTEAGVKPENVRVVELVNGKPRILTSDLDLEKLFPYRGWLLKKTNGENIEGGPQEALKDADVLISFTRPGPGVIKPQWIEKMNEDAIVFPLANPVPEILPEEAKKAGARIVATGRSDYPNQINNLLGFPGIFRGALDVRARTITDSMIIAAAKAIASIVEEPSEENIIPSPLNPIVYAREARAVAEEAMKEGVARTKVKGEWVEEHTIRLIEFYENVIAPINKKRREYSKAITRA” as the sequence, how does the protein production read?
Its protein production is “not failed”.

With “MIRFTMMPGEDGDCLLLEYGDGTFLRRILLDGGRSGTYPRIRPTLAGLDGLVDVLVVTHVDQDHLLGVLALLNDPDRSVEFGDVWFNGFDHLLEFEGFGAQDGEKLTSALVEQKLPWNDAFGGLSVEVGRELVWFDDGSTVDVLSPDRGQLESLAPDWVKECAKHGLIPGRDPDEIPLVPGFEHFGGVNVEELAARPFRPDTSKTNLTSIGLLFEFEGKRIILTGDADDRRLVRSIRPRAEAEGGRLHVDVLKVAHHGSDHNLSKDLLDLIDCDRYLISTSGARHDHPNAIAVARILKHGGAKKEIVFNYRDRAAIWDVDSLKDRFGYTVTAPAPDAEDGFVSFEL” as the sequence, how does the protein production read?
The protein production was “failed”.

Which protein production does the source give for “MIRLGKMSDLDQILNLVEEAKELMKEHDNEQWDDQYPLLEHFEEDIAKDYLYVLEENDKIYGFIVVDQDQAEWYDDIDWPVNREGAFVIHRLTGSKEYKGAATELFNYVIDVVKARGAEVILTDTFALNKPAQGLFAKFGFHKVGEQLMEYPPYDKGEPFYAYYKNLKE” here?
The protein production was “failed”.

For “MIRVLFFIRMTMSRTIQRICLFLFCLPVFGSCMKWDYGEMEDFSVSASGLFITNEGNFQYSNATLSYYDPATCEVENEVFYRANGFKLGDVAQSMVIRDGIGWIVVNNSHVIFAIDINTFKEVGRITGFTSPRYIHFLSDEKAYVTQIWDYRIFIINPKTYEITGYIECPDMDMESGSTEQMVQYGKYVYVNCWSYQNRILKIDTETDKVVDELTIGIQPTSLVMDKYNKMWTITDGGYEGSPYGYEAPSLYRIDAETFTVEKQFKFKLGDWPSEVQLNGTRDTLYWINNDIWRMPVEADRVPVRPFLEFRDTKYYGLTVNPNNGEVYVADAIDYQQQGIVYRYSPQGKLIDEFYVGIIPGAFCWK”, which protein production is on record?
The protein production was “failed”.

For “MISDIRKDAEVRMDKCVEAFKTQISKIRTGRASPSLLDGIVVEYYGTPTPLRQLASVTVEDSRTLKINVFDRSMSPAVEKAIMASDLGLNPNSAGSDIRVPLPPLTEERRKDLTKIVRGEAEQARVAVRNVRRDANDKVKALLKDKEISEDDDRRSQDDVQKLTDAAIKKIEAALADKEAELMQF”, which protein production is on record?
Its protein production is “not failed”.

Which protein production does the source give for “MISDLPDDLESEILSRVPTKSLAKLQTMGNTRLVVWDSSTGETRWIKPRTRFRNDDYYGLGYVNSKSSGHSFKILRSCYYRNDQKQWVAEFEIYEFGSDTWRVLDYFTHDYGVFSSGGPLKRNTYWVAGDKEMGMFMLYFDFTRERFGHFPLPFKSFNREDTASLSVVREEKLSVLHQKILEFSNEMKIWLTNKIDETIELSWSNFVLTVDYDKFNLPSVVNVASFLLDEENKVAVCSDIDVDDENRTRVYVVGEDIYKQVYKDTTKASYFNCSTSCSIYW” here?
Its protein production is “failed”.

For “MISGFESIQLTTLILIVVAGFAAGWVDAVVGGGGLIQLPALLLVPGITPVQALATNKMGSIFGTTTSAVTYYRRVGPDLKTAVPMAVIALAGSFGGAILAASLPASVFKPIIVLALIAVAIFTALRPGAGELTALRHDGHKHYVVACLIGAVIGFYDGLIGPGTGSFLVIALVSAMGYAFLEASAKAKIVNMATNAGALIFFLPHGSLLWGVGLILGLANMAGGYLGARTAVARGSKFVRLVFLMVVAALIIKLGMDVWNENFAA”, which protein production is on record?
The protein production was “failed”.

Which protein production does the source give for “MISGNTINHKNNMAGLKSLVKDTALYGLSSMVGRFLNYLLVPLYTAVLPAASGGYGVVTNVYAWAGLIMVLLTFGMETGFFRFANKSEEDPVKVYANSLISVGGISLIFAILCLTFLQPVSHLLEYGDHPDFIGMMIIVMALDAFLCIPFAYLRFKKRPIKFVAIKFVSIIANIVLNLFFLLLCPWLHEHFPAWVDWFYNPTYLVGYIFVSNLITTCLQLFCLIPELRGFAYRVDKQLLKRMLIYSFPILIFGLVGILNQTVDKIIYPFLFADRQEGLVQLGIYGAATKIAMVMAMFTQAFRYAYEPFVFGKQKEGDNRRMYAQAMKYFLIFAMFAFLVVMFYLDLLRYMVAPDYWAGLSVVAIVIGAEIFKGIYFNLSFWYKLIDETRWGAYFSIVGCVIIVGMNVMLVPTYGFVASAWASVAGYAVITILSYWIGQKKYPIHYDLKHLGTYVLFTAVLYVIGEWVPIENIVLRLAFRTVLLLIFMAYVVRKDLPLSQIPVINRIIKKK” here?
The protein production was “failed”.

With “MISLPYLQRFALSGQVALVTGSARGLGLRIAQALAGSGAHVLLNGRDAHAVEAAVSDLRQQGLRASALPFDVSDEQATEQAFARIDAEHGRLDILVNNVGARNRKPLAETSPAEIRAMMDTNLVAGILLARLAAQRMVRQRYGRLIAITSVAGELARANDAVYPAAKQGLTGMMRALAVEFGRHGITSNAIAPGAFATETNAAMANDPQAGAAMAARNPTGRWGDPEEIAGAAVFLASPAASYVNGHVLVVDGGLSVQF” as the sequence, how does the protein production read?
The protein production was “failed”.

Which protein production does the source give for “MISRHLQNNLMSVDPASSQAMELSDVTLIEGVGNEVMVVAGVVVLILALVLAWLSTYVADSGSNQLLGAIVSAGDTSVLHLGHVDHLVAGQGNPEPTELPHPSEGNDEKAEEAGEGRGDSTGEAGAGGGVEPSLEHLLDIQGLPKRQAGAGSSSPEAPLRSEDSTCLPPSPGLITVRLKFLNDTEELAVARPEDTVGALKSKYFPGQESQMKLIYQGRLLQDPARTLRSLNITDNCVIHCHRSPPGSAVPGPSASLAPSATEPPSLGVNVGSLMVPVFVVLLGVVWYFRINYRQFFTAPATVSLVGVTVFFSFLVFGMYGR” here?
The protein production was “failed”.

With “MISRNLKIYFRDRTAVFMSLLTVLIIIGLYAIFLGNNMEEMFKQASGKTVGIQELVNTWVIAGILSITPVTVSLAVFSLKVHDEELSIARSFAITSASRWRIVISYIVSGLVASFLLSVITLFVGEMYIWLTGGEFLPFESWIRLIGIILINVLCCSSIMFFIASLVKKASAFSSVSTIVGTVIGFIAGIYLPIGSLPAAVQTAMKCFPFTYGASTIREIMTKEPLKEVFAGNTGAMDATKEMIGITIYWGDKTVTTGLSLLILSAFAVVFGVLSVILMKRQTK” as the sequence, how does the protein production read?
The protein production was “failed”.

With “MISSLTTIISTGTNLGSGTDDDIYFGIHLNNGQKKEWLLDKETYNDFENGATDEYYLYINDMDFLPTMVDKVWVRKNSTGSFAGNWFFKALRIDANGNDVLSVSPNEWITDLEHHHHHH” as the sequence, how does the protein production read?
The protein production was “not failed”.

Which protein production does the source give for “MISSMNFWRCRCSKDDAEQSMLYSYNNGFLGFSAKLNSTQAASLAKLNQVITVFKSKSLKLHTTRSWDFLGLAVDNARRTPPPQLAYGSDIVVGIFDTGLFISLKLLLLSILGIWPESESFRETPEAKPIPSSWNGKCVGGEDFDPSVHCNRKLIGARFYLRGFEETYGTIDFTRDPEYRSPRDYLGHGTHTASTAVGSVVRNVSGFFGLGRGTARGGAPLARLAVFKTCWGKDLEGVCTEADILAAFDDAIHDGVHVISASFGYSPPLSPFFESSADIGAFHAAERGISVVFSTGNDGPDPGVVQNVAPWAVSVAASTVDRSFPTRIVIDGSFTLTGQSLISQEITGTLALATTYFNGGVCKWENWMKKLANETIILCFSTLGPVQFIEEAQAAAIRANALALIFAASPTRQLAEEVDMIPTVRVDILHGTRIRNYLARSPTVPMVKIGPSKTVIGETTAPSVAYFSSRGPSSLSPDILKPDITAPGIGILAAWPPRTPPTLLPGDHRSIEWNFQSGTSMSCPHVAGVMALLQSAHPDWSPSAIRSAIMTTAYTRDTSYDLILSGGSMKSTDPFDIGAGHINPLKAMDPGLVYNTRTDDYVLFMCNIGYTDQEIKSMVLHPEPSTTCLPSHSYRTNADFNYPSITIPSLRLTRTIKRTVSNVGPNKNTVYFVDIIRPVGVEVLIWPRILVFSKCQQEHSYYVTFKPTEIFSGRYVFGEIMWTNGLHRVRSPVVVFLSNAGFLASS” here?
Its protein production is “failed”.
